Measurements reported in the supplement of paper PMC7125110.
± gives the standard error. Fewer inactive variants are shown than the library holds.

B1: glmS ribozyme (parent)
chain: AUAAAAGCGCCAGAACUACAGAAAUGUAGUUGACGAGGAGGAGGUUUAUCGAAUUUUCGGCGGAUGCCUCCAAA

Key:
Conditions in all cases: with glucosamine-6-phosphate
glucosamine-6-phosphate [1] = variants of: B1; assay: self-cleavage kobs at 40 uM GlcN6P; higher = faster cleavage; RNA array
Procedure, shortened: (§1)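 A hybridised Cy3 probe tracked barcoded ribozyme variants, transcribed in situ by E. coli RNA polymerase on sequenced MiSeq chips, at 37 °C. The variants received 40 μM to 10 mM glucosamine-6-phosphate in HEPES/KCl/Mg(OAc)2 buffer. kobs came from decay fits and kcat and KM from weighted Michaelis–Menten fits.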

glucosamine-6-phosphate [2] = variants of: B1; assay: self-cleavage kobs at 160 uM GlcN6P; higher = faster cleavage; RNA array
Procedure, shortened: as §1

glucosamine-6-phosphate [3] = variants of: B1; assay: self-cleavage kobs at 10000 uM GlcN6P; higher = faster cleavage; RNA array
Procedure, shortened: as §1

glucosamine-6-phosphate [4] = variants of: B1; assay: self-cleavage kobs at 2500 uM GlcN6P; higher = faster cleavage; RNA array
Procedure, shortened: as §1

glucosamine-6-phosphate [5] = variants of: B1; assay: self-cleavage kobs at 640 uM GlcN6P; higher = faster cleavage; RNA array
Procedure, shortened: as §1

Row | Variant | self-cleavage kobs at 40 uM GlcN6P (glucosamine-6-phosphate [1]) [s⁻¹] | self-cleavage kobs at 160 uM GlcN6P (glucosamine-6-phosphate [2]) [s⁻¹] | self-cleavage kobs at 10000 uM GlcN6P (glucosamine-6-phosphate [3]) [s⁻¹] | self-cleavage kobs at 2500 uM GlcN6P (glucosamine-6-phosphate [4]) [s⁻¹] | self-cleavage kobs at 640 uM GlcN6P (glucosamine-6-phosphate [5]) [s⁻¹]
1 | U30G U49C A64C | < 1e-05 | < 1e-05 | < 1e-05 |  | 
2 | A33U C50G C61A | 0.000105 ± 2e-05 |  | 0.000139 ± 2.7e-05 |  | 
3 | U31C G35A G37U | < 1e-05 |  |  |  | 
4 | G32U C50G C61A | 0.000162 ± 2.5e-05 |  | 0.000319 ± 4.2e-05 |  | 
5 | A33C A36C | < 1e-05 |  |  | < 1e-05 | 
6 | A33U G41A | < 1e-05 |  | 4.33e-05 ± 9.1e-06 |  | < 1e-05
7 | U30G G44U U45C | < 1e-05 |  | < 1e-05 |  | 
8 | G32C G35C | < 1e-05 |  | < 1e-05 |  | < 1e-05
9 | A33C U47C G59A | < 1e-05 |  |  |  | 
10 | A33C G44C | < 1e-05 | < 1e-05 | < 1e-05 | < 1e-05 | < 1e-05
11 | C34A U54C | < 1e-05 | < 1e-05 | < 1e-05 |  | < 1e-05
12 | U31A A64G | 0.000322 ± 8.5e-05 | 0.000708 ± 0.0002 | 0.0255 ± 0.0096 | 0.00394 ± 0.0012 | 0.00331 ± 0.0006
13 | U31A A52G C67G | 6.56e-05 ± 1.9e-05 |  | 9.04e-05 ± 1.2e-05 |  | 
14 | C34A U57C | < 1e-05 | < 1e-05 | < 1e-05 | < 1e-05 | 
15 | C34G A39U | < 1e-05 |  | < 1e-05 | < 1e-05 | < 1e-05
16 | A33G G41C U47C | < 1e-05 |  |  | < 1e-05 | < 1e-05
17 | C34G A39U C70U | < 1e-05 |  |  |  | 
18 | G32A G51A | < 1e-05 | < 1e-05 | < 1e-05 |  | < 1e-05
19 | U31G U45C U49G | < 1e-05 |  | < 1e-05 |  | < 1e-05
20 | G32C G41C | < 1e-05 | < 1e-05 | < 1e-05 | < 1e-05 | < 1e-05
21 | C34A U56C A64C | < 1e-05 |  |  |  | 
22 | C34A C50G C68G | 0.000116 ± 2.4e-05 |  | 6.65e-05 ± 1.4e-05 |  | 
23 | C34A U45G C68U C71A | < 1e-05 | < 1e-05 | < 1e-05 | < 1e-05 | 

Row | Variant | self-cleavage kobs at 40 uM GlcN6P (glucosamine-6-phosphate [1]) [s⁻¹] | self-cleavage kobs at 160 uM GlcN6P (glucosamine-6-phosphate [2]) [s⁻¹] | self-cleavage kobs at 10000 uM GlcN6P (glucosamine-6-phosphate [3]) [s⁻¹] | self-cleavage kobs at 2500 uM GlcN6P (glucosamine-6-phosphate [4]) [s⁻¹] | self-cleavage kobs at 640 uM GlcN6P (glucosamine-6-phosphate [5]) [s⁻¹]
24 | U31A U49C | < 1e-05 | < 1e-05 | < 1e-05 | < 1e-05 | < 1e-05
25 | C34A A64G | < 1e-05 | < 1e-05 |  | < 1e-05 | 
26 | A33C U54A U57C | < 1e-05 |  |  | < 1e-05 | 
27 | U31A G62C C70G | < 1e-05 |  |  |  | 
28 | U31C U45C C58A C61G C67G | < 1e-05 |  | < 1e-05 |  | 
29 | U31G A42C | < 1e-05 | < 1e-05 |  | < 1e-05 | 
30 | A33C G63U G66U | < 1e-05 |  | < 1e-05 |  | < 1e-05
31 | G32U A48U | < 1e-05 | < 1e-05 |  |  | < 1e-05
32 | U31A A53G C61A | < 1e-05 |  | < 1e-05 | < 1e-05 | 
33 | A33U G51U | < 1e-05 | < 1e-05 |  |  | 
34 | A33G U54G U65G | < 1e-05 |  | < 1e-05 |  | 
35 | U30G G44C | < 1e-05 | < 1e-05 | 3.93e-05 ± 1.1e-05 |  | 
36 | C34G A52C | < 1e-05 | < 1e-05 | < 1e-05 | < 1e-05 | < 1e-05
37 | G32A C50G G60A C68G | 6.94e-05 ± 1.7e-05 |  | 5.25e-05 ± 1.1e-05 |  | 
38 | A33U U65G C71U | < 1e-05 |  |  |  | 
39 | G32U G59A | < 1e-05 | < 1e-05 |  |  | < 1e-05
40 | U30G U55G C71U | 0.00027 ± 5e-05 |  | 0.00591 ± 0.001 | 0.00316 ± 0.0014 | 0.00135 ± 0.00022
41 | G32A G35A | < 1e-05 | < 1e-05 | < 1e-05 | < 1e-05 | < 1e-05
42 | U31G U56G | 0.000123 ± 2.1e-05 | 0.000145 ± 4e-05 | 0.00342 ± 0.00086 | 0.00132 ± 0.00034 | 0.000347 ± 8.2e-05
43 | A33G G35C C70G | 0.000358 ± 8.4e-05 |  | 0.000163 ± 4.5e-05 |  | 
44 | C34A C58U C71U | < 1e-05 |  | < 1e-05 |  | 
45 | U31G A39G A53G | 0.000493 ± 0.00012 |  |  | 0.0115 ± 0.0049 | 0.00385 ± 0.0009
